Tests used:
[1] = target: MBD2 MBD R188K (Homo sapiens, UniProt Q9UBB5 143-220, R188K); assay: ITC
[2] = target: MBD2 MBD R166K/R188K (Homo sapiens, UniProt Q9UBB5 143-220, R166K;R188K); assay: ITC
MBD2 MBD R166K/R188K, sequence (Q9UBB5 143-220 R166K/R188K): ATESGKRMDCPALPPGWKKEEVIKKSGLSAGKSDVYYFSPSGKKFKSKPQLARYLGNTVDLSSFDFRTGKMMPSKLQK

MBD2 MBD R188K, sequence (Q9UBB5 143-220 R188K): as the sequence (Q9UBB5 143-220 R166K/R188K) above, with K24R counted along it

B1: mCG dsDNA 12mer (dsDNA)
DNA 1: GCCAACGTTGGC
DNA 2: GCCAACGTTGGC
modifications: 5-methyl-C at position 6 of both strands
Kd [1]: 7.5 ± 0.4 µM
binding result [2]: no binding

Reference: article PMC8600091
